Legend:
[1] = substrate: C/C(=C\C(=O)SCCNC(=O)CCNC(=O)[C@H](O)C(C)(C)COP(=O)(O)OP(=O)(O)OC[C@H]1O[C@@H](n2cnc3c(N)ncnc32)[C@H](O)[C@@H]1OP(=O)(O)O)C(=O)O; experiment: UPLC of CoA esters (hydration to (S)-citramalyl-CoA); type: biochemical, Haloarcula hispanica; details: 100 mM Tris/HCl pH 7.8, 3 M KCl, 5 mM MgCl2, 37°C, forward direction (hydration), apparent
Description: UPLC of CoA esters (hydration to (S)-citramalyl-CoA) on mesaconyl-CoA hydratase (Mch, Hah_1340)

[2] = substrate: C/C(=C\C(=O)O)C(=O)SCCNC(=O)CCNC(=O)[C@H](O)C(C)(C)COP(=O)(O)OP(=O)(O)OC[C@H]1O[C@@H](n2cnc3c(N)ncnc32)[C@H](O)[C@@H]1OP(=O)(O)O; experiment: UPLC of CoA esters (hydration to beta-methylmalyl-CoA); type: biochemical, Haloarcula hispanica; details: 100 mM Tris/HCl pH 7.8, 3 M KCl, 5 mM MgCl2, 37°C, forward direction (hydration), apparent
Description: UPLC of CoA esters (hydration to beta-methylmalyl-CoA) on mesaconyl-CoA hydratase (Mch, Hah_1340)

[3] = substrate: CC(C)(COP(=O)(O)OP(=O)(O)OC[C@H]1O[C@@H](n2cnc3c(N)ncnc32)[C@H](O)[C@@H]1OP(=O)(O)O)[C@@H](O)C(=O)NCCC(=O)NCCSC(=O)C[C@](C)(O)C(=O)O; experiment: UPLC of CoA esters (dehydration); type: biochemical, Haloarcula hispanica; details: 100 mM Tris/HCl pH 7.8, 3 M KCl, 5 mM MgCl2, 37°C, apparent
Description: (§1) UPLC of CoA esters (dehydration) on mesaconyl-CoA hydratase (Mch, Hah_1340)

[4] = substrate: CC(C)(COP(=O)(O)OP(=O)(O)OC[C@H]1O[C@@H](n2cnc3c(N)ncnc32)[C@H](O)[C@@H]1OP(=O)(O)O)[C@@H](O)C(=O)NCCC(=O)NCCSC(=O)C[C@H](O)C(=O)O; experiment: UPLC of CoA esters (dehydration); type: biochemical, Haloarcula hispanica; details: 100 mM Tris/HCl pH 7.8, 3 M KCl, 5 mM MgCl2, 37°C, apparent
Description: as §1

[5] = molecular target: the molecule itself; experiment: SEC; analytical gel filtration, 24-ml Superdex 200 Increase 10/300 GL, 50 mM Tris/HCl pH 8.0 with 2 M KCl, 0.75 ml/min; calibrated with alcohol dehydrogenase (150 kDa), bovine serum albumin (66 kDa), carbonic anhydrase (29 kDa), cytochrome c (12.4 kDa); native mass against the monomer's mass
[6] = substrate: C[C@H](C(=O)SCCNC(=O)CCNC(=O)[C@H](O)C(C)(C)COP(=O)(O)OP(=O)(O)OC[C@H]1O[C@@H](n2cnc3c(N)ncnc32)[C@H](O)[C@@H]1OP(=O)(O)O)[C@@H](O)C(=O)O; experiment: UPLC of CoA esters (dehydration to mesaconyl-C1-CoA); type: biochemical, Haloarcula hispanica; details: 100 mM Tris/HCl pH 7.8, 3 M KCl, 5 mM MgCl2, 37°C, reverse direction (dehydration), apparent
Description: UPLC of CoA esters (dehydration to mesaconyl-C1-CoA) on mesaconyl-CoA hydratase (Mch, Hah_1340)

[7] = substrate: CC(C)(COP(=O)(O)OP(=O)(O)OC[C@H]1O[C@@H](n2cnc3c(N)ncnc32)[C@H](O)[C@@H]1OP(=O)(O)O)[C@@H](O)C(=O)NCCC(=O)NCCSC(=O)CCC(=O)O; experiment: UPLC of mesaconyl-CoA formation; type: biochemical, Haloarcula hispanica; details: CoA donor, 10 mM mesaconate, 100 mM Tris/HCl pH 7.8, 3 M KCl, 5 mM MgCl2, 37°C, apparent
Description: (§2) UPLC of mesaconyl-CoA formation on succinyl-CoA:mesaconate CoA-transferase (Mct, Hah_1336)

[8] = substrate: C/C(=C\C(=O)O)C(=O)O; experiment: UPLC of mesaconyl-CoA formation; type: biochemical, Haloarcula hispanica; details: CoA acceptor, 1 mM succinyl-CoA, 100 mM Tris/HCl pH 7.8, 3 M KCl, 5 mM MgCl2, 37°C, apparent
Description: as §2

[9] = substrate: CC(CC(=O)O)C(=O)O; experiment: UPLC of CoA-ester formation; type: biochemical, Haloarcula hispanica; details: CoA acceptor, 1 mM succinyl-CoA, 100 mM Tris/HCl pH 7.8, 3 M KCl, 5 mM MgCl2, 37°C, apparent
Description: (§3) UPLC of CoA-ester formation on succinyl-CoA:mesaconate CoA-transferase (Mct, Hah_1336)

[10] = substrate: O=C(O)CCCC(=O)O; experiment: UPLC of CoA-ester formation; type: biochemical, Haloarcula hispanica; details: CoA acceptor, 1 mM succinyl-CoA, 100 mM Tris/HCl pH 7.8, 3 M KCl, 5 mM MgCl2, 37°C, apparent
Description: as §3

[11] = substrate: C=CC(=O)O; experiment: UPLC of CoA-ester formation; type: biochemical, Haloarcula hispanica; details: CoA acceptor, 1 mM succinyl-CoA, 100 mM Tris/HCl pH 7.8, 3 M KCl, 5 mM MgCl2, 37°C, apparent
Description: as §3

B1: mesaconyl-CoA hydratase from Haloarcula hispanica (enzyme, UniProt G0HQ35 1-358, looked up)
chain: MTDWTDPDALDLSDGETFDSLLDRADTREKGHFFEFFAEGDELAHDPGLRLSHHGSEQWMGQTLNHDPAYWRADTAQERGFEERPVHPDYLLACVMGITVEDLSEKGGYFLGRDDVEFHQPATAGTPLSVTSTVVDTRTSSSRPKYGIVTWETEGRDRETGETLVSYRRTNMIPRREPAATDGGAVGEQDEGGPAMPDTLLSPDGERFGDFQAALDTAREENAAVAYRHERGRTMDDQLVAGLPLSTLNTARQHHNRDEMADSPSGDIVAYGDVTRSIALAHARSDEATYREQRFADERFHDFVTLGDTVYGFTRVLDCDPDAGPERAGAVTFEHVAFNQEQTPVYSGRRTAHIQRHQ
notes: mesaconyl-CoA hydratase (Mch, Hah_1340) of Haloarcula hispanica; the 1.07-kb mch gene (358 amino acids, predicted molecular mass 40 kDa) was cloned into pTA963; No removal of the tag is described; also called Mch; Hah_1340; source: Haloferax volcanii H1209 (pTA963), purified (Ni-NTA, gel filtration); not shown: His6, N-terminal, kept
B1 was tested, and the Km [1] was 180 ± 10 µM, the Vmax [1] was 1.12 µmol/min/mg and the kcat/Km [1] was 2000 M⁻¹ s⁻¹. The Km [2] was 1000 ± 100 µM, the Vmax [2] was 20.7 µmol/min/mg and the kcat/Km [2] was 6900 M⁻¹ s⁻¹. The Km [3] was 2600 ± 300 µM, the Vmax [3] was 1.6 µmol/min/mg and the kcat/Km [3] was 200 M⁻¹ s⁻¹. It also gave a Km [4] of 320 ± 50 µM, a Vmax [4] of 3.6 µmol/min/mg and a kcat/Km [4] of 3800 M⁻¹ s⁻¹. For the same protein, the “stoichiometry N” value [5] was 2, the Km [6] was 350 ± 50 µM and the Vmax [6] was 266 µmol/min/mg. It also gave a kcat/Km [6] of 254000 M⁻¹ s⁻¹.

B2: succinyl-CoA:mesaconate CoA-transferase from Haloarcula hispanica (enzyme, UniProt G0HQ31 1-396, looked up)
chain: MGALDDLRVLDLTQVLAGPYCTMLLADMGADVVKVERPGGDLIRSNPPFVSDGDEEAYGGYFQSVNRGKRSLELDLGTDEDREAFLSLVERADVVVENFKAGTMEKFDCGYETLREHNPDLIYSSIRGFGDPRTGETHRQGQPSFDLIAQALGGVMEITGQSDGPPTKVGPGVGDLFTAVLNAVGILAAVHHRERTGEGQYVDTAMYDSMVSLCERTVYQYSCDGESPTRQGNSHPTLFPYDSFEAADGHVVIAAFADGHWETLCEAMERPDLAADYPDAGSRIANRESLRREIADWTATIDSETLLDLLEGRVPAAPVQNTADIFDDPHIHDREMLTDVDQPGADEQITIAGSPIKMTETMPSPGGRAPLLDEHRAELLDEAGVGTGTNRVESDD
notes: succinyl-CoA:mesaconate CoA-transferase (Mct, Hah_1336) of Haloarcula hispanica; the 1.19-kb mct gene (396 amino acids, predicted molecular mass 43 kDa) was cloned into pTA963; No removal of the tag is described; also called Mct; Hah_1336; source: Haloferax volcanii H1209 (pTA963), purified (Ni-NTA, gel filtration); not shown: His6, N-terminal, kept
For B2, the Km [7] was 2800 ± 200 µM, the Vmax [7] was 69.2 µmol/min/mg and the kcat/Km [7] was 17800 M⁻¹ s⁻¹. For the same protein, the Km [8] was 1300 ± 200 µM, the Vmax [8] was 17 µmol/min/mg and the kcat [8] was 12.2 s⁻¹. For the same protein, the kcat/Km [8] was 9800 M⁻¹ s⁻¹, the “stoichiometry N” value [5] was 2 and the Km [9] was 600 ± 100 µM. For the same protein, the Vmax [9] was 11 µmol/min/mg, the kcat/Km [9] was 12400 M⁻¹ s⁻¹ and the Km [10] was 40900 ± 3900 µM. The Vmax [10] was 18.1 µmol/min/mg, the kcat/Km [10] was 320 M⁻¹ s⁻¹ and the Km [11] was 39300 ± 4600 µM. It also gave a Vmax [11] of 6.2 µmol/min/mg and a kcat/Km [11] of 120 M⁻¹ s⁻¹.
